# Measured values as given in the nanobody polyreactivity screen of Harvey et al. (2022).
# Experiment: yeast display, Sf9 membrane polyspecificity reagent, FACS + sequencing; frameworks hold sequencing errors
# How it was run: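 Genes from sorted yeast were amplified by colony PCR, read by MiSeq 2 × 250 sequencing and filtered on CDR length. These cells carried a synthetic nanobody library in Saccharomyces cerevisiae BJ5465 and were sorted by FACS into low and high (top ~1%) gates on anti-HA and streptavidin fluorescence. Polyreactivity is labelled according to the gate of origin.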
row,Sequence,polyreactivity (PSR sort gate)
1,QVQLVESGGGLVQAGGSLRLSCAASGNIFDTYVMGWYRPAPGTERELVAAISSAGSTNYADSVKGRFTISRDNAKNTVYLQMNSLKPEDTAVYYCNADYWYYGYDYWGQGTQVTVSS,low polyreactivity
2,QVQLVESGGGLVQAGGSLRLSCAASGSIFVGYAMGWYRQAPGKERELVASITTRGGSTHYADSVKGRFTISRDNAKNTVYLQMNSLKPEDTAVYYCAADSLSNGVLQYLPGYDYWGQGTQVTVSS,low polyreactivity
3,HVQLVESGGGLVQAGGSLRLSCAASGRIFYYNAMGWYRQAPGKERELVAVITWRGGTTYYADSVKGRFTTSRDTAKNTVYLQMNSLKPEDTAVYYCAADTGAFDGYYRQPRIRFDYWGQGTQVTVSS,high polyreactivity
4,QVQLVESGGGLVQAGGSLRISCAASGSPIWNYVMRWYRKAPGKVRDLVAAISIVGSTYYADSVKGRFTSSRDNAKNTVYFELNILKPEDTAVNYCNAGYFGGSNASKVRLSYDHWGQGTDVTVSS,low polyreactivity
5,QVQLVESGGGLVQAGGSLRLSCAASGSIFARYAMGWYRQAPGKERELVAALSGSGASTYYADSVKGRFTISRDNAKNTVYLQMNSLKPEDTAVYYCARPFLRRPTYRFETGYGYWGQGTQVTVSS,high polyreactivity
6,QVQLVESGGGLVQAGGSLRLSCAAAGSTFHANAMGWYRPAPGKERELVAAISRSGGSTNYADSVKGRFTISRDIAKNTVYLQMNSLKPEDTAVYYCAVDYRYYQVYYWGQGTQVTVSS,high polyreactivity
7,QVQLVESGGGLVQAGGSLRLSCAASGFTFQTYAMGWYRQAPGKERELVATINSSGGGTYYADSVKGRFTNSRDNAKNTVYLQMNSLKPEDTAVYYCAADAVWFVGQAFDISDSTTYGYWGQGTQVTVSS,low polyreactivity
8,QVQLVESGGGLVQAGGSLRLSCAASGSTFVGYAMGWYRQAPGKERELVADIDSIGGSTYYADSVKGRFTISRDNAKNTVYVQMNSLKPEDTAVYYCAARRFDTALVLYDYWGQGTQVTVSS,low polyreactivity
9,QVQLVESGGGLVQAGGSLRLSCAASGRTFGLYAMGWYRQAPGKERELVAAISYSGGRTYYADSVKGRFTISRDNAKKTVYLQRNSLKPEDTAVYYCNKAWFPYYYYRFDYWGQGTQVTVSS,high polyreactivity
10,QVQLVESGGGLVQAGGSLRISCAASGFTFNANAMGWYRQAPGNERELVAAISLSGGRTYYADSVKGRFTISRDNAKNTVYLQMNSLKPEDTAVYYCAASPDGSFRRFSRVVSGDYWGQGTQVTVSS,high polyreactivity
11,QVQLVESGGGLVQAGGSLRLSCAASGRIFYRYAMGCYRQAPGKERELVAGIRSRGGRTYYADSVKGRFTISRDNAKNTVYLQMNSLKPEDTAVYYCAARYLSGTSRYYYWGQGTQVTVSS,high polyreactivity
12,QVQLVESGGGLVQAVGRLRLSCAASGRILPLYAMGWYRQAPGKEREMVADITGSDGSTYYADSVKGRFSISRDNAKNTVYLQMNSLKPEDTAVYYCATDAIGRTPSDPWDYYYWGQGTQVTVSS,low polyreactivity
13,QVQLVESGGGLVQAGGSLRLSCAASGTFKWYAMGWYSQAPGKERELDAVISSSGGTTYYADSVKGRFTISRDNAKNTVYLQMNSLKPEDTAVYYCNKRFRSWTTGSPYDYWGQGTQVTVSS,high polyreactivity
14,QVQLVESGGGVVQAGGSLRLSCAASGSIFLGNAMGWYRPAPGKERELVAAITWSGGSTYYADSVKGRFTISRDNAKNTVYLQMNSLKPEDTAVYYCNAYSYVAIRDGGDYWGQGTLVTVSS,low polyreactivity
15,QVQLVESGGGLVQAGGSLRLSCAASGSIFYAYARGWYRQAPGKERELVATISSVGSTYYADSVKGRFTISRDNAKHTVYLHMNSLKPEDTAVHYCAKQRIVVYKTGYDYWGQGTQVTVSS,low polyreactivity
16,QVQLVESGGGLVQAGGSLRLSCASSGIIFNVYAMGWYRQAPGKERELVAAISSTSSTYADSVKGRFTISRDNAKNTVYLQMNSLKPEDTAVYYCNTDYSDGYPAFAYWGQGTQVTVSS,low polyreactivity

row,Sequence,polyreactivity (PSR sort gate)
1,QVQLVESGGGLVHAGGSLRLSCAASGRIFRRYAMGWYRQAPGKERELVASISSGGSTNYADSLKGRFTISRDNAKNTVYLQMNSLNPEDTAVYYCNVYYGYFRSRYCYWGQGTQVTVSS,high polyreactivity
2,QVQLVESGGGLVQAGGSLRLSCAASGSTFYANAMGWYRQAPGKERELVAAITRSGAGTYYADSVKGRFTISRDNAKNTVYLQMNSLKPEDTAVYYCAKRTKTPTGYVWGGYDYWGQGTQVTVSS,high polyreactivity
3,QVQLVESGGGLVQAGGSLRLSCAASGSIGVYAMGWYRQSPGKERELVAGISRSGSSTFFADSVKGRFTISRDNAKNTVYLQMNSLKPEDTAVYYCTAYTYNYRQGSEYYYWGQGTQVTVSS,high polyreactivity
4,QVQLVESGGGLVQAGGILRLSSAASGFIFKANAMGWSRQAPGKERELVAVITRRGGSTYYADSVKGSFTISRDNAKNTVYLQMNSLKREDTAVYYSAKEGSARYGPSDAYDYWGQGTQVTVSS,high polyreactivity
5,QVQLVESGGGLVQAGGSLRLSCAASGFTFAYYAMGWYRQAPGKERELVAGISWRGGRTYYADSVKGRFTISRDNAKNTVYLQMNSLKPEDTAVYYCAKQPGNFGRFDYWGQGTQVTVSS,high polyreactivity
6,QVQLVESGGGLVQAGGSLRLSCAASGSTFDRYALGWYRQAPGKERELVAAITRGGSTYYADSVKGRFTISRDNAKNTVYLQLNSLKPDDTAVYYCAAAHWWVRVRGARYSYWGHGTQVTVSS,high polyreactivity
7,QVQLVESGGGLDQAGGSLRLSCAASGRTFRNYVMGWYRQAPGKERELVAAISRSGGSTYYADSVKGRFTISRDNAKNSVYLQMNSLKPEDTAVYYCNTVTTYDVEYWGQGTQVTVSS,high polyreactivity
8,QVQLVESGGGLVQAGGSLRLSCAASGSTFYIYAMGWSRQAPGKEREFVAAIDFSGSSTYADSVKGRFTISLDNAKNTVYLQMNSLKPEDTAVYYCAAYQIYQYYGPYDYWGQGTQVTVSS,low polyreactivity
9,QVQLVESGGGLVQEGGSLRLICAASGRIFRYYAMGWYRQAPGKERELVASITYSGGRTNYADSVKGRFTISRDNAKNTVYVQMNSLKPEDTAVYYCNAAYVYYYPHYRYAPTAVDYDYWGQGTQVTVSS,low polyreactivity
10,QVQLVESGGGLVQAGGSLRLSCAASGSLFTGYAMGWYRQAPGKERELVAAISSSGSTTYYADSVKGRFTISRDNAKNTVYLQMNSLKPEDTAVYYCATRVNYGYYYWGQGSQVTVSS,high polyreactivity
11,QVQLVESGGGLVQAGGSLRLSCAASGSTFVYNAMGWYRQAPGKERELVASITRSGSSTYYADSVKGRFTISRDNAKNTVYLQMNSLKPEDTAVYYCAVRYSVLSNYRYYYWGQGTQVTVSS,low polyreactivity
12,QVQLVESGGGLVQAGGSLRLSCAASGGTFRVYAMGWYRQAPGKERELVAAISGGGRTYADSVKGRFTISRDNAKITVYLQMNSLKPEDTAVYYCNTRRYYRVTTVKRYDYWGQGTQVTVSS,high polyreactivity
13,QVQLVESGGGLVQAGGCLRLSCAASGSTFRGNAMGWYRQAPGKERELVAAITYSGGSTDYADSVKGRFTISRDNAKNTVYLQMNSLKPDDTAVYYCAARWYYYPLLYDYWGQGTQVTVSS,low polyreactivity
14,QVQLVQSGGGLVQEGGSLRLSCAASGSTLSIYAMGWYRQAPGKERELVASITTSGSSTYYADSVKGRFTISRDNAKNTVYLQMNSLKPEDTAVYYCAKRKSYRSQPWGYDYWGQGTQVTVSS,high polyreactivity
15,QVQLVESGGGLVQAGGSLRLRCAASGSIFYLYAMGWFRRAPGKERELVAASSRSGASTYYADSVKGRFTISRDNAKNTVYLQMNSLKPEDTAVYYGAADYNSQLARIYDYWGQGTQVTVSS,low polyreactivity
